{"source": "patent US20220340673A1", "about": "(HARBOUR BIOMED SUZHOU, published 2022)", "binders": {"B1": {"name": "BCMA x CD3 bispecific antibody PR003178 (bispecific antibody, human IgG1, lambda, L234A L235A)", "heavy 1": "not shown", "light": "QAVVTQEPSLTVSPGGTVTLTCRSSTGAVTTSNYANWVQQKPGQAPRGLIGGTNKRAPWTPARFSGSLLGDKAALTLLGAQPEDEAEYFCALWYSNLWVFGGGTKLTVLGQPKAAPSVTLFPPSSEELQANKATLVCLISDFYPGAVTVAWKADSSPVKAGVETTTPSKQSNNKYAASSYLSLTPEQWKSHRSYSCQVTHEGSTVEKTVAPTECS", "heavy 2": "EVQLVETGGGLIQPGGSLRLSCAASGFTVSDNYMTWVRQAPGKGLEWVSVIFSGGNTYYADSVKGRFTISRDNAKNTLYLQMNSLRAEDTALYYCARRNYDDTRGTDVFDIWGQGTMVTVSSGGGGSGGGGSGGGGSEVQLVETGGGLIQPGGSLRLSCAASGFTVSDNYMTWVRQAPGKGLEWVSVIFSGGNTYYADSVKGRFTISRDNAKNTLYLQMNSLRAEDTALYYCARRNYDDTRGTDVFDIWGQGTMVTVSSASEPKSSDKTHTCPPCPAPEAAGGPSVFLFPPKPKDTLMISRTPEVTCVVVDVSHEDPEVKFNWYVDGVEVHNAKTKPREEQYNSTYRVVSVLTVLHQDWLNGKEYKCKVSNKALPAPIEKTISKAKGQPREPQVCTLPPSREEMTKNQVSLSCAVKGFYPSDIAVEWESNGQPENNYKTTPPVLDSDGSFFLVSKLTVDKSRWQQGNVFSCSVMHEALHNHYTQKSLSLSPGK", "notes": "Three chains: HC1 (anti-CD3 heavy, knob, LALA), LC (anti-CD3 lambda light), HC2 (two tandem anti-BCMA VH of PR001046 joined by (G4S)3, then Fc hole, LALA); also called PRO03178"}}, "key": {"[1]": {"biological_target": "T1, human BCMA on cells (HEK293T/huBCMA; NCI-H929) (human, UniProt Q02223 1-184)", "T1 construct": "whole, on cells; also called human BCMA molecules on NCI-H929 cell line", "T1 sequence (looked up)": "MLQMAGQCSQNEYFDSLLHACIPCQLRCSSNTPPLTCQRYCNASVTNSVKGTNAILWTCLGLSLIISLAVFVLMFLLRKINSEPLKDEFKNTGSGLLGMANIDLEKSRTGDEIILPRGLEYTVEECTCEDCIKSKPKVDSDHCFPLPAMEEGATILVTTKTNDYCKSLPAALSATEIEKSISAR", "experiment": "FACS on NCI-H929 cells"}, "[2]": {"biological_target": "T1, human BCMA on cells (HEK293T/huBCMA; …)", "experiment": "FACS on HEK293T cell strain overexpressing human BCMA [C]", "excerpt": "To study the in vitro binding activity of the BCMA arm of the BCMA×CD3 bispecific antibody, HEK293T cell strain overexpressing human BCMA (HEK293T/huBCMA) and HEK293T cell strain overexpressing cynomolgus monkey BCMA (HEK293T/cynoBCMA) were used for antibody binding experiments at cellular level. Briefly, HEK293T/huBCMA cells and HEK293T/cynoBCMA cells were digested and resuspended with DMEM complete medium. The cell density of the two was adjusted to 1×10⁶ cells/mL, respectively. Cells were inoculated at 100 μL cells/well in a 96 well V-bottom plate (Corning, Cat#: 3894), followed by the addition of test antibodies at 100 μL/well, which is gradient diluted at 3 folds of the concentration with 2 folds of the final concentration. Cells were incubated at 4° C. for 1 hour in the dark. Afterwards, the cells were washed twice with 100 μL/well of pre-cooled PBS, centrifuged at 500 g for 5 min at 4° C., and followed by discarding the supernatant. 100 μL/well of fluorescent secondary antibody (Alexa Fluor 488-conjugated AffiniPure Goat Anti-Human IgG, Fcγ Fragment Specific, Jackson, Cat#: 109-545-06, 1:500 dilution) was added and incubated for 30 min at 4° C. in the dark. […] Finally, the cells were resuspended with 200 μL/well of pre-cooled PBS, and the fluorescence luminescence signal values were read by BD FACS CANTOII. […]"}, "[3]": {"biological_target": "T2, human CD3e/g ECD-hFc recombinant protein (human, UniProt P07766 23-126; P09693 23-116)", "T2 construct": "extracellular domain; Bought from ChemPartner; not shown: human Fc", "T2 sequence (P07766 23-126, chain 1 of 2)": "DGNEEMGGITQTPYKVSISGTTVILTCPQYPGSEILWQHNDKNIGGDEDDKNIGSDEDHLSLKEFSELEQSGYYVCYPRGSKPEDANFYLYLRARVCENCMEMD", "T2 sequence (P09693 23-116, chain 2 of 2)": "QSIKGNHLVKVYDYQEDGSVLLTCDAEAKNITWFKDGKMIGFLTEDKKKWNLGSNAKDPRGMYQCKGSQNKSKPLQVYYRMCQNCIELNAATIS", "experiment": "SPR (Biacore T200), antigen amine-coupled on CM5, antibody as analyte, 1:1 fit", "description": "(§1) The flow rate was set as 10 μl/min and four antigens were coupled on four channels on two CMS: 1) the injection time was set as 300 s, and 50 mM of NHS and 200 mM of EDC were freshly mixed at 1:1 volume ratio and injected into four channels; 2) human BCMA-Fc, Avitag recombinant protein, cynomolgus monkey BCMA-FC, Avitag, human CD3e/g ECD-hFc recombinant protein and cynomolgus CD3e/g ECD-hFc recombinant protein were all diluted to 1 μg/ml with sodium acetate (Cat# BR-1003-50) (pH 4.5), and injected into channel 2, 3 and 4 of chip 1 and channel 2 of chip 2, respectively; 3) 1 M of ethanolamine (pH8.5) was injected for 300 s to block the remaining active carboxyl groups on the chips surface. After blockage, the instrument was continued to be equilibrated with 1 ×HBS- EP+buffer for two hours. The final coupling amounts of human BCMA-Fc, Avitag recombinant protein, cynomolgus monkey BCMA-Fc, Avitag, human CD3e/g ECD-hFc recombinant protein and cynomolgus monkey CD3e/g ECD-hFc recombinant protein were 120 RU, 70 RU, 200 RU and 290 RU, respectively.\n(§2) A multi-cycle kinetic mode was set, and each cycle included the binding of PRO03178 as well as the regeneration of the chip. […]\n(§3) The experimental results were analyzed by using Biacore T200 analysis software, and channel 1 was deducted as reference channel, and a 1:1 kinetic fit model was selected as the analysis model."}, "[4]": {"biological_target": "T3, human BCMA-Fc, Avitag recombinant protein (ACRO, Cat. BC7-H82F0) (human, UniProt Q02223 1-54)", "T3 construct": "extracellular domain; Bought reagent; amine-coupled to the CM5 chip in the Biacore assay; also called recombinant human BCMA-ECD-Fc; human BCMA recombinant protein; not shown: Fc and Avitag of the bought protein", "T3 sequence (looked up)": "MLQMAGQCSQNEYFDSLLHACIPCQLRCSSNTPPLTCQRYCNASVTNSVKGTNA", "experiment": "SPR (Biacore T200), antigen amine-coupled on CM5, antibody as analyte, 1:1 fit", "description": "as §1, §2, §3"}, "[5]": {"biological_target": "T3, human BCMA-Fc, Avitag recombinant …", "experiment": "Biacore, antigen coupled to a CM5 chip, PR003178 injected at 12-0.375 nM, 1:1 kinetic fit [E]", "description": "(§4) Human BCMA-Fc, Avitag recombinant protein (ACRO, Cat. BC7-H82F0), cynomolgus monkey BCMA-Fc, Avitag (ACRO, Cat. BCA-C82F4) were purchased from ACRO, human CD3e/g ECD-hFc recombinant protein (Lot.20190508002), cynomolgus monkey CD3e/g ECD-hFc recombinant protein and human (Lot.2018040001) were purchased from ChemPartner.\nas §1\n(§5) A multi-cycle kinetic mode was set, and each cycle included the binding of PRO03178 as well as the regeneration of the chip. PRO03178 with two-fold gradient dilution was injected into four channels at a flow rate of 30 μl/min. A binding time of 180 s and a dissociation time of 400 s or 600s were set. Finally, 10 mM of glycine-hydrochloric acid (pH 1.5) (GE Life Sciences, Cat# BR-1003-54) was injected at the same flow rate for 60 s to regenerate the chip."}, "[6]": {"biological_target": "T4, cynomolgus monkey BCMA-Fc, Avitag (ACRO, Cat. BCA-C82F4) (cynomolgus monkey, UniProt A0A2K5UD97 1-53)", "T4 construct": "Bought reagent; amine-coupled to the CM5 chip; also called cynomolgus monkey BCMA recombinant protein; not shown: Fc and Avitag of the bought protein", "T4 sequence (A0A2K5UD97 entry or part of it)": "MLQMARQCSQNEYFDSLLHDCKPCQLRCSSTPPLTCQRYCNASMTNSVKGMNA", "experiment": "Biacore, antigen coupled to a CM5 chip, PR003178 injected at 6-0.1875 nM, 1:1 kinetic fit [E]", "description": "as §4, §1, §5"}}}
{"binder": "B1", "values": [{"measurement": "fold lower EC50 than positive control 2", "setting": "[1]", "value": "~8", "unit": "fold"}, {"measurement": "EC50", "setting": "[2]", "value": 0.188, "unit": "nM"}, {"measurement": "Kd", "setting": "[3]", "value": "~25.4", "unit": "nM"}, {"measurement": "Kd", "setting": "[4]", "value": "~0.0949", "unit": "nM"}, {"measurement": "koff", "setting": "[5]", "value": 0.000167, "unit": "s⁻¹"}, {"measurement": "kon", "setting": "[5]", "value": "1.76e+06", "unit": "M⁻¹ s⁻¹"}, {"measurement": "Kd", "setting": "[6]", "value": 0.147, "unit": "nM"}, {"measurement": "koff", "setting": "[6]", "value": 0.000285, "unit": "s⁻¹"}, {"measurement": "kon", "setting": "[6]", "value": "1.94e+06", "unit": "M⁻¹ s⁻¹"}]}
